Assay results: the Human Domainome abundance scans (Beltran et al. 2025)

B1: Cytoplasmic polyadenylation element-binding protein 2, residues 513 to 575; numbered along this chain, Q7Z5Q1 (parent)
chain: KRVEVKPYVLDDQMCDECQGARCGGKFAPFFCANVTCLQYYCEFCWANIHSRAGREFHKPLVK

Variants of: B1
Experiment: abundance fitness (aPCA) (normalised: wild type 0, dead -1); higher = more abundant; growth selection in yeast, the domain comes from the species named
Conditions: Homo sapiens

Abundance fitness: each site, then its substitutions
A53: P 0.157, V -0.006, E 0.082, L -0.092, H 0.053, T 0.082, F -0.045, I -0.079, M -0.045, Q 0.106, S 0.053, Y -0.098, C -0.091, D 0.02, W -0.287, R 0.055, K 0.142, N 0.152
F44: G 0.015, Y 0.059, N -0.056, T 0.003, W -0.067, V 0.044, A 0.05, P 0.082, E 0.033, K -0.046, R -0.038, Q 0.124, C 0.053, S -0.012, D -0.109, M -0.145, L 0.007
E56: S -0.128, M -0.154, P -0.31, R -0.01, V -0.373, F -0.235, K 0.035, C -0.195, Q -0.214, N -0.111, W -0.573, L -0.253, D -0.035, H -0.158, Y -0.271, A -0.357
Y41: S -0.532, E -0.652, V -0.531, M -0.053, K -0.625, T -0.329, H -0.704, F -0.088, P -0.734, C -0.365, D -0.729, L 0.039, Q -0.433, I -0.694, G -0.878, R -0.804, A -0.676, N -0.898
Y40: K -0.186, N 0.041, M -0.231, W -0.059, Q -0.184, T -0.315, S -0.178, P -0.654, L -0.397, V -0.399, R -0.132
W46: Q -0.624, N -0.33, K -0.829, H -0.328, Y -0.154, T -0.558, F 0.027, I -0.444, L -0.335, V -0.573, D -0.684, A -0.503, M -0.336, E -0.658, G -0.567, P -0.624, C -0.401, R -0.571
F57: E 0.117, P -0.029, H 0.027, R 0.097, T 0.121, G 0.166, D 0.054, L 0.091, A 0.125, M 0.144, I -0.109, S 0.129, C 0.098, Y -0.032, W 0.026, N 0.134, V 0.065
S51: W -0.267, Q 0.102, P -0.118, F -0.239, R 0.116, G 0.051, M 0.029, V -0.025, A 0.045, H -0.054, L -0.021, T 0.006, N 0.091, K 0.106, D 0.174
N48: A -0.001, S 0.032, P -0.141, Y -0.112, G 0.074, I -0.02, E 0.104, Q -0.028, F -0.071, M 0.068, K 0.164, D 0.007, T 0.024, L 0.014, R 0.029, C -0.033, H 0.049, V -0.003
I49: R -0.006, M -0.184, L -0.033, A 0.017, S -0.015, Q -0.132, E -0.461, N -0.221, P -0.43, Y 0.026, T -0.139, F -0.044, D -0.186, G -0.284, W -0.268, V -0.01, C -0.443, K -0.127
R52: N 0.004, Y -0.088, Q 0.119, M 0.064, E 0.079, V 0.102, C -0.077, S 0.085, I 0.029, K 0.118, A 0, L -0.017, F -0.071, W -0.225, G 0.02, D 0.156
H58: L -0.707, R -0.763, Y -0.822, T -0.611, F -0.934, W -1.01, M -0.653, V -0.704, D -0.704, I -0.679, S -0.523, C -0.227, A -0.743, E -0.442, K -0.384, Q -0.663, P -0.51
P60: C -0.154, G -0.341, E -0.412, H -0.226, F -0.937, A -0.051, L -0.517
A47: M 0.019, E -0.001, L -0.18, D 0.102, P -0.175, C -0.318, V -0.192, K 0.091, R -0.041, W -0.133, N 0.127, Q -0.01, I -0.073, H -0.17, F -0.235, Y -0.114
R55: D -0.08, Q -0.058, V -0.1, P -0.463, A -0.03, N -0.019, G -0.176, L 0.04, H -0.131, Y 0.211, E -0.142, M 0.031, I 0.104, C -0.194, S -0.041, F 0.035, T -0.165
H50: P -0.81, G -0.637, Q -0.727, M -0.875, W -0.784, F -0.904, A -0.674, Y -0.806, L -0.965, E -0.546, S -0.723, T -0.742, I -0.992, N -0.827, R -0.775, K -0.673
E43: W -0.136, G -0.179, H -0.079, K -0.161, A -0.3, C -0.25, N -0.05, Q -0.11, S 0.018, I -0.539, D -0.049, M -0.309, F -0.298, V -0.235, Y -0.146, T -0.149, R -0.107, L -0.395
C45: T -1.01, R -1.05, A -0.77, Y -0.917, H -0.733, M -1.24, P -0.932, W -1.04, L -1.14, E -1.16, V -1.32, F -1.2, S -1.1, Q -0.994, I -1.1, K -1.11
G54: N 0.108, H -0.123, E -0.065, T -0.112, L -0.146, K -0.195, M -0.299, S -0.009, I -0.176, P -0.004, V -0.32, W -0.259
K59: T -0.041, L -0.219, E 0.168, R 0.024, F -0.541, A -0.118, Y -0.351, S 0.021, D -0.132, Q -0.076, C -0.199, H -0.226, I -0.3, V -0.2, W -0.46, G -0.255, N -0.248, P -0.247
C42: D -0.558, P -0.826, R -1, G -0.58, H -0.818, W -1.29, L -1.03, F -0.819, A -0.593, Y -0.869, E -0.951, M -1.22, Q -1.21, V -0.849, T -1.11
